Literature values in patent publication US20240024427A1, “METHOD OF REDUCING INTRAOCULAR PRESSURE” (INVEX THERAPEUTICS LTD, priority 2020, published 2024).
Like-named read-outs stand apart in the source and are kept apart here.

How the values were obtained:
[1] = conscious rat model, dosed subcutaneously, immediate release formulation

Substance	Mean plasma terminal half-life (per SmPC)	also measured
exendin-4		effect on intracranial pressure (ICP) compared to a saline control [1]: reduced ICP
Lixisenatide		Mean plasma terminal half-life (per SmPC or FDA product label): Approximately 3 hours
Semaglutide	Approximately 1 week	
Dulaglutide	108 to 113 h	
Albiglutide	Approximately 5 days	
